# Laboratory results: patent US20250154231A1 (RQBIO COVID, published 2025)
# Changes are numbered by the printed parent chain.
# B1: Omi28 (antibody, V domains shown)
# VH: EVQLVESGGGLVQPGGSLRLSCAASGVIVSSNYMSWVRQAPGKGLQWVSVIYSGGSTFYADSVKGRFTISRDNSKNTLYLQMNSLRAEDTAVYYCARDLLEAGGTDYWGQGTLVTVSS
# VL: DVVMTQSPGTLSLSPGERATLSCRASQFIGSSYLAWYQQKPGQAPRLLIYGASNRATGVPDRFSGSGSGTDFTLTISRLEPEDFAVYYCQQYGSAPGTFGQGTKVEIK
# B2: Omi33 (antibody, V domains shown)
# VH: EVQLLESGGGVVQPGRSLRLSCAASGFKFSDYGMHWVRQAPGKGLEWVAVYWYDGGTKFYADSVKGRFTISRDNSKNTLYLQMSSLRVEDTAVYYCARDTAPPDYWGQGTLVTVSS
# VL: EIVLTQSPGTLSLSPGERATLSCRASQSISSNFLAWYQQKPGQAPRLLIYGASSRATGIPDRFSGSGSGTDFTLTISRLEPEDFAVYYCQQYGTSPRLTFGGGTKVDIK
# B3: Omi35 (antibody, V domains shown)
# VH: QVQLVESGGGLVQPGRSLRLSCAASGFTFDDYAMHWVRQAPGKGLEWVSGSTWNSGTIDYADSVKGRFTISRDNAKNSLYLQMNSLRAEDTALYYCAKDRFRKGCSSTGCYKENYGMDVWGQGTTVTVSS
# VL: QSVVTQPPSVSVAPGQTARITCGGTNIGSKSVHWYQQKPGQAPVLVVYDDSDRPSGIPERFSGSNSGNTATLTITWVEAGDEADYYCQVWDSSSDNVLFGGGTKLTVL
# B4: Omi30 (antibody, V domains shown)
# VH: EVQLVESGAEVKKPGSSVKVSCKASGGTFSRYAISWVRQAPGQGLEWMGGIIPIFDATNYAQKFHDRVTITADKSASTAYMELSSLRSDDTAVYYCARERTYCSGGTCYGGYFYYGMDVWGQGTTVTVSS
# VL: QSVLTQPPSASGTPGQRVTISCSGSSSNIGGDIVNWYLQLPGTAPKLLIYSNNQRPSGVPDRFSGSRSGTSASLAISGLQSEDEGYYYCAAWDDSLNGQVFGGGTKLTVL
# B5: Omi34 (antibody, V domains shown)
# VH: QVQLVQSGAEVKKPGSSVKVSCKASGGTFSSYGIRWVRQAPGQGLEWMGGIIPVFGATNYAQKFQDRVTITADKSTATAYMELSSLKSDDTAVYFCARDALSASGWTGPFDSWGQGTLVTVSS
# VL: QSVLTQPPSVSGAPGQRVTISCTGSSSNIGADYDVHWYQQLPGAAPKLLIYGNNNRPSGVPDRFSGSKSGTSASLAITGLQAEDEADYYCQSYDSSQNAFYVFGTGTKVTVL
# B6: Omi08 (antibody, V domains shown)
# VH: EVQLVESGAEVKRPGASVKVSCKASGYTFTNYFMHWVRQAPGQGLEWMGVINPSDGGASYPQKFQGRVTMTRDTSTSTVYMDLSSLRSEDTAVYSCARGAFDVSGSWYVPFDYWGQGTLVTVSS
# VL: QSVVTQPPSVSGAPGQRVTISCTGSSSNIGAGYDVHWYQQLPGAAPKLLIYGNTNRPSGVPDRFSGSKSGTSASLAITGLQAEDEADYYCQSYDITLSGSGYVFGTGTKVTVL
# B7: Omi29 (antibody, V domains shown)
# VH: QVQLVESGGGLVQPGGSLRLSCAASGLIVSRNYMSWVRQAPGKGLEWVSLIYAGGSTFYSDSVKGRFTISRHSSENTLFLQMNSLRAEDTAVYYCARDLVHYGMDVWGQGTTVTVSS
# VL: NFMLTQPASVSGSPGQSITISCTGTSSDVGGYNYVSWYQQHPGKAPKLMIYDVSNRPSGVSNRFSGSNSGNTASLTISGLQAEDEADYYCSSYTSGSTWVFGGGTKLTVL
# B8: Omi39 (antibody, V domains shown)
# VH: QVQLVESGGVVVQPGGSLRLSCAASGFSFDDYSMHWVRQAPGKGLEWVSVIYWDGVSKYYADSVKGRFTISRDNSKNSLYLQMNSLRTEDTAVYYCAKDSEDCSSTSCYMDVWGKGTTVTVSS
# VL: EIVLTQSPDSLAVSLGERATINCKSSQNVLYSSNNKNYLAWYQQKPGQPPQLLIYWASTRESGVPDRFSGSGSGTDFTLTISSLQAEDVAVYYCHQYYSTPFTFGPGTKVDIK
# B9: Omi26 (antibody, V domains shown)
# VH: QVQLVQSGTEVKKPGASVKVSCKASDYTFTRFGIIWVRQAPGQGLEWMGQINPYNGNTDYAQKFQGRVTLTTDTSTNTAYMELRSLRSDDTAVYYCARSAGSPTGLDYWGQGTLVTVSS
# VL: QSVVTQPPSVSEAPRQRVTISCSGSNSNIGNNAVNWYQQLPGKAPKLLVYYDDLLPSGVSDRFSGSKSGTSASLAISGLQSEDKADYYCAAWDDSLNALVFGGGTKLTVL
# B10: Omi16 (antibody, V domains shown)
# VH: EVQLVESGGGVVQPGGSLRLSCAASGIIVSANYMTWVRQAPGKGLEWVSVIYPGGSTFYADSVKGRFTISRDNSKNTLYLQMNSLRVEDSAVYYCARDLELAGFNDFWGQGTLVTVSS
# VL: DVVMTQSPGTLALSPGERATLSCRTSQSVSSNYLAWYQQKPGQAPRLLIYGASSRATGIPDRFSGSGSGTDFTLTISRLEPEDFAVYYCQQFGSSPRYTFGQGTKVEIK
# B11: Omi17 (antibody, V domains shown)
# VH: QVQLVESGGGVVQPGGSLRLSCAASGVTVSSNYMSWVRQAPGKGLEWVSVLYAGGSTFYADSVKGRFTISRDNSKNTLYLQMNSLRAEDTAAYYCARDLAVAGFLDSWGQGTLVTVSS
# VL: B10 VL with V2I, A12S, T25A, S28G, N32I, L48V, I49L, F92Y
# B12: Omi38 (antibody, V domains shown)
# VH: QVQLVESGAEVKKPGSSVKVSCKASGGNFNMYTISWVRQAPGRGLEWMGRFIPIANKANYAQNFPGRVTITADKSTSTVYMELRSLTSDDTAVYYCARSGSYDAFDVWGQGTMVTVSS
# VL: AIRMTQSPSTLSASVGDRVTITCRASQTINSWLAWYQQKPGKAPKLLIYDASNLESGVPSRFSGSGSGTEFTLTISSLQPDDFATYYCQQYESYSPITFGQGTRLEIK
# B13: Omi25 (antibody, V domains shown)
# VH: QVQLVESGGGLVQPGRSLRLSCAASGFTFDDYAMHWVRQVPGKGLEWVSGISWNSGSIVYADFVKGRFTIARDNAKNSLFLQMNSLRAEDTALYYCAKSTALRHQYYYGMDVWGQGTTVTVSS
# VL: AIQMTQSPSSLSASVGDRVTITCRTSQTISSYLNWYQQKPGKAPKLLIYDASSLQSGVPSRFSGSGYGTDFTLTISSLQPEDFATYFCQQSYNTPYAFGQGTKVEIK
# B14: Omi23 (antibody, V domains shown)
# VH: QVQLQESGPGLVKSSQTLSLTCTVSGDSISRGGYYWSWIRQHPGKGLEWIGSIYYSGSTYYNPSLKSRFTISVDTSKNQFSLKLSSVTAADTAVYHCAREIGFLDYWGQGTLVTVSS
# VL: AIQMTQSPSSLSASVGDRVTITCRASQAISNSLAWYQQKPGKAPKLLLYAASTLESGVPSRFSGSGSGTDFTLTISSLQPEDFATYFCQQYYSTPPRTFGQGTKVDIK
# B15: Omi27 (antibody, V domains shown)
# VH: EVQLLESGGGLVQPGGSLRLSCVASGLTVSSNYMSWVRQAPGKGLEWVSIIYPGGTTYYADSVKGRFTTSRDKSKNTLYLQMNSLRAEDTAVYYCARDLAVAGGMDVWGQGTTVTVSS
# VL: EIVMTQSPSSLSASVGDRVTITCRASQGIGNDLGWYQQKPGKAPKVLIYAASNLQSGVPSRFSGSGSGTDFTLTISSLQPEDFATYYCLQDSNYPYTFGQGTKVEIK
# B16: Omi02 (antibody, V domains shown)
# VH: EVQLVESGAEVKKPGSSVKVSCKASGGTFSSYAINWVRQAPGQGLEWMGGIIPIFRTPHYAQKFQGRVTITADESTGTAYMELSSLRSEDTAVYYCASPSCGGDCPQYLKSSKLDWYFDLWGRGTLVTVSS
# VL: VIWMTQSPGTLSLSPGERATLSCRASQSVSSTYLAWYQQKPGQAPRLLIYGASSRATGIPDRFSGSGSGTDFTLTISRLEPEDFAVYYCQHYGSSPLTFGQGTRLEIK
# B17: Omi24 (antibody, V domains shown)
# VH: QVQLVESGAEVKKPGSSVKVSCKASGGTFSSHGVIWVRQAPGQGLEWMGGIIPIFPTANYAQKFQGRVTITADKPSNTAYMELSSLRSEDTAVYYCARARGEHDSVWGSFHYYFDYWGQGTLVTVSS
# VL: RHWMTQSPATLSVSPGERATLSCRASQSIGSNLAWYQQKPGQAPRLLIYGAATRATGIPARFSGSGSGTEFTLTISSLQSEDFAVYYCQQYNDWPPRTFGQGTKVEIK
# Molecular target: T1, Omicron BA.1 RBD (SARS-CoV-2, UniProt P0DTC2 333-528)
# T1 construct: domain: RBD
# Experiment: ELISA
row,Binder,binding result
1,B1,binds
2,B2,binds
3,B3,binds
4,B4,binds
5,B5,binds
6,B6,binds
7,B7,binds
8,B8,binds
9,B9,binds
10,B10,binds
11,B11,binds
12,B12,binds
13,B13,binds
14,B14,binds
15,B15,binds
16,B16,binds
17,B17,binds
